This passage reports screen value results from paper PMC10958042.

To fix the notation:
B1: ATGL (PNPLA2, patatin-like phospholipase domain-containing protein 2), human, full length / perilipin-5, mouse (mPlin5) (parent)
chain 1: MFPREKTWNISFAGCGFLGVYYVGVASCLREHAPFLVANATHIYGASAGALTATALVTGVCLGEAGAKFIEVSKEARKRFLGPLHPSFNLVKIIRSFLLKVLPADSHEHASGRLGISLTRVSDGENVIISHFNSKDELIQANVCSGFIPVYCGLIPPSLQGVRYVDGGISDNLPLYELKNTITVSPFSGESDICPQDSSTNIHELRVTNTSIQFNLRNLYRLSKALFPPEPLVLREMCKQGYRDGLRFLQRNGLLNRPNPLLALPPARPHGPEDKDQAVESAQAEDYSQLPGEDHILEHLPARLNEALLEACVEPTDLLTTLSNMLPVRLATAMMVPYTLPLESALSFTIRLLEWLPDVPEDIRWMKEQTGSICQYLVMRAKRKLGRHLPSRLPEQVELRRVQSLPSVPLSCAAYREALPGWMRNNLSLGDALAKWEECQRQLLLGLFCTNVAFPPEALRMRAPADPAPAPADPASPQHQLAGPAPLLSTPAPEARPVIGALGL
chain 2: MDQRGEDTTLAPHSRMSGDQTAQDPGSSLGELDQQNVVNRVVALPLVKATCTAVSSAYNSAKDRHPLLGSACRLAEHCVCSVTTCALDHAQPLLEHLQPQLATVNDLACRGLDKLEEKLPFLQQPSDMVVTSAKDTVAKSVTGMVDLAQRGRRWSGELRRSMSQAMDMVLGKSEKLVDRFLPMTEAELAVLAAEAEGPEVGTVEEQRQQQGYFVRLGSLSARLRHLAYEHSLGKLRQSKHRTQEMLAQLQETLELIQHMQRGASPSPTFHPPKTQELWGSWSPCLENGRSHSEVELETLALSRSLTLELQNAVDALAGCVRGLPPSAQAKVAEVQRSVDALQATFADAHCLGDVAPTALAEGRGSVARAHACVDEFLDLVLRAMPLPWLVGPFAPILVEQSEPLINLATCVDEVVGDPDPRWAHMDWPAQKRAWEAESADPGGQEAEPPRGQGKHTMMPELDF
B2: ATGL (PNPLA2, patatin-like phospholipase domain-containing protein 2), human, full length / CIDEC (FSP27), human (parent)
chain 1: B1 chain 1
chain 2: MEYAMKSLSLLYPKSLSRHVSVRTSVVTQQLLSEPSPKAPRARPCRVSTADRSVRKGIMAYSLEDLLLKVRDTLMLADKPFFLVLEEDGTTVETEEYFQALAGDTVFMVLQKGQKWQPPSEQGTRHPLSLSHKPAKKIDVARVTFDLYKLNPQDFIGCLNVKATFYDTYSLSYDLHCCGAKRIMKEAFRWALFSMQATGHVLLGTSCYLQQLLDATEEGQPPKGKASSLIPTCLKILQ

In one assay the parent is B1. In words: LUMIER: Protein A-ATGL variant and firefly luciferase-partner co-expressed in HEK293T, lysates immunoprecipitated on IgG-coated plates, co-precipitated partner measured as luciferase luminescence. The note with it: with perilipin-5, mouse (mPlin5), transient co-transfection, IgG-coated LUMITRAC plates, 2 h at 4 °C, three PBS washes, Bright-Glo luciferase reagent, triplicates per assay, two …, parent: 0.15, not graded, scale: log2 fold change of co-immunoprecipitated luminescence relative to wild-type ATGL within each experiment.
With chain 1 F35E, the screen value was -0.313.

On to chain 1 L102K, for which the screen value was -0.208.

As to chain 1 S158E, the screen value is -0.0461.

As to chain 1 S158A, the screen value is -0.0252.

On to chain 1 I70K, for which the screen value is -0.962.

Regarding chain 1 I70A, the screen value was -1.37.

For chain 1 S106K, the screen value is -0.363.

With chain 1 N180L, the screen value was -0.751.

Consider chain 1 V127L, for which the screen value was -0.294.

As for chain 1 Q140A, the screen value is -0.185.

Take chain 1 Q140K: the screen value is 0.011.

In the case of chain 1 L261E, the screen value is -0.706.

chain 1 G59L: the screen value is -0.841.

As for chain 1 G16K, the screen value stood at 0.284.

chain 1 Y415A: the screen value is 0.184.

chain 1 P103K: the screen value is -0.303.

For the variant chain 1 A104E, the screen value was -0.161.

Consider chain 1 R113K, for which the screen value was 0.649.

For the variant chain 1 R113L, the screen value was -0.305.

In the case of chain 1 L62K, the screen value is -0.0604.

Consider chain 1 L62A, for which the screen value was -0.2.

Take chain 1 R95K: the screen value is 0.211.

For chain 1 R95L, the screen value was -0.404.

For the variant chain 1 L159A, the screen value is -1.17.

Turning to chain 1 V328A, the screen value is -0.912.

chain 1 R329E: the screen value amounted to 0.105.

Turning to chain 1 A453E, the screen value worked out at 0.182.

On to chain 1 H109E, for which the screen value came to 0.319.

In the case of chain 1 E368A, the screen value was -0.0206.

Regarding chain 1 S87A, the screen value is -0.249.

Take chain 1 S87E: the screen value was -0.403.

Turning to chain 1 E125L, the screen value turned out to be 0.00114.

For chain 1 G66A, the screen value was -0.448.

Consider chain 1 G66L, for which the screen value was -0.614.

Turning to chain 1 P258L, the screen value was -0.695.

On to chain 1 G153A, for which the screen value was -0.676.

For chain 1 G153K, the screen value was -1.05.

As to chain 1 R351L, the screen value is -0.213.

In the case of chain 1 P86K, the screen value was -1.17.

On to chain 1 K275A, for which the screen value was -0.0642.

Consider chain 1 F348E, for which the screen value came to 0.152.

Regarding chain 1 G189E, the screen value was -1.35.

On to chain 1 Q396A, for which the screen value is -0.512.

As for chain 1 R163K, the screen value is -0.296.

chain 1 T41A: the screen value came to 0.0372.

Regarding chain 1 N39E, the screen value was -0.463.

Take chain 1 A434L: the screen value worked out at 0.18.

The assay is the same for the next values; noted with them: with perilipin-5, mouse (mPlin5), transient co-transfection, IgG-coated LUMITRAC plates, 2 h at 4 °C, three PBS washes, Bright-Glo luciferase reagent, triplicates per assay, two …, parent: 0.46, not graded, scale: log2 fold change of co-immunoprecipitated luminescence relative to wild-type ATGL within each experiment.
As for chain 1 F35E, the screen value is -0.0352.

As to chain 1 L102K, the screen value is -0.846.

For the variant chain 1 S158E, the screen value was 0.172.

On to chain 1 S158A, for which the screen value is 0.0162.

Consider chain 1 I70K, for which the screen value is -0.924.

For chain 1 I70A, the screen value was -0.876.

For chain 1 S106K, the screen value is -0.539.

Regarding chain 1 N180L, the screen value is -0.918.

Turning to chain 1 V127L, the screen value was -0.0973.

Turning to chain 1 Q140A, the screen value was -0.0429.

On to chain 1 Q140K, for which the screen value is -0.224.

For chain 1 L261E, the screen value is -0.846.

In the case of chain 1 G59L, the screen value was -0.187.

For the variant chain 1 G16K, the screen value worked out at 0.354.

Take chain 1 Y415A: the screen value turned out to be 0.247.

As for chain 1 P103K, the screen value is -0.674.

As to chain 1 A104E, the screen value is -0.459.

For the variant chain 1 R113K, the screen value amounted to 0.667.

Regarding chain 1 R113L, the screen value was determined as 0.191.

With chain 1 L62K, the screen value was 0.482.

Consider chain 1 L62A, for which the screen value was -0.0199.

chain 1 R95K: the screen value was -0.228.

Consider chain 1 R95L, for which the screen value is -0.391.

As for chain 1 L159A, the screen value was -0.435.

As to chain 1 V328A, the screen value is -0.985.

On to chain 1 R329E, for which the screen value is -0.51.

In the case of chain 1 A453E, the screen value worked out at 0.52.

As for chain 1 H109E, the screen value is -0.248.

chain 1 E368A: the screen value was -0.0325.

In the case of chain 1 S87A, the screen value was -0.228.

For chain 1 S87E, the screen value was -0.318.

For the variant chain 1 E125L, the screen value was -0.226.

With chain 1 G66A, the screen value was 0.0231.

As for chain 1 G66L, the screen value is -0.664.

With chain 1 P258L, the screen value is -1.24.

As to chain 1 G153A, the screen value is -0.506.

Turning to chain 1 G153K, the screen value is -0.867.

Regarding chain 1 R351L, the screen value was -0.456.

In the case of chain 1 P86K, the screen value was -1.16.

With chain 1 K275A, the screen value is -0.483.

As for chain 1 F348E, the screen value is -0.58.

As for chain 1 Q396A, the screen value is -0.623.

As to chain 1 R163K, the screen value is 0.00396.

For the variant chain 1 T41A, the screen value was 0.0895.

As to chain 1 N39E, the screen value is -0.463.

For chain 1 A434L, the screen value was determined as 0.786.

Still in this assay, the particulars now being: with perilipin-5, mouse (mPlin5), transient co-transfection, IgG-coated LUMITRAC plates, 2 h at 4 °C, three PBS washes, Bright-Glo luciferase reagent, triplicates per assay, two …, parent: 0.46, not graded, value at the no-binding floor (a bound), scale: log2 fold change of co-immunoprecipitated luminescence relative to wild-type ATGL within each experiment.
For the variant chain 1 G189E, the screen value was -1.51.

Another assay covers variants of B2. Described as above. The note with it: with CIDEC (FSP27), transient co-transfection, IgG-coated LUMITRAC plates, 2 h at 4 °C, three PBS washes, Bright-Glo luciferase reagent, triplicates per assay, two …, parent: 0.17, not graded, scale: log2 fold change of co-immunoprecipitated luminescence relative to wild-type ATGL within each experiment.
Regarding chain 1 S106K, the screen value was -0.0703.

For the variant chain 1 S87A, the screen value is -0.0562.

For the variant chain 1 S87E, the screen value is -0.478.

As to chain 1 P258L, the screen value was -0.89.

On to chain 1 R163K, for which the screen value is 0.652.

chain 1 A434L: the screen value is -0.034.

On to chain 1 I70K, for which the screen value was -0.434.

With chain 1 I70A, the screen value is -0.118.

In the case of chain 1 K92L, the screen value is -0.0227.

Turning to chain 1 F348E, the screen value was -0.409.

As for chain 1 L261E, the screen value was -0.713.

The same assay, now with this note: with CIDEC (FSP27), transient co-transfection, IgG-coated LUMITRAC plates, 2 h at 4 °C, three PBS washes, Bright-Glo luciferase reagent, triplicates per assay, two …, parent: 0.24, not graded, scale: log2 fold change of co-immunoprecipitated luminescence relative to wild-type ATGL within each experiment.
Regarding chain 1 S106K, the screen value is -0.113.

Consider chain 1 S87A, for which the screen value is -0.798.

For the variant chain 1 S87E, the screen value was -0.728.

Consider chain 1 P258L, for which the screen value is -0.788.

Turning to chain 1 R163K, the screen value amounted to 0.0551.

In the case of chain 1 A434L, the screen value is 0.729.

Regarding chain 1 I70K, the screen value is -0.623.

For the variant chain 1 I70A, the screen value is -0.628.

On to chain 1 K92L, for which the screen value stood at 0.785.

For the variant chain 1 F348E, the screen value was -0.389.

Turning to chain 1 L261E, the screen value was -0.796.
